Tested on: Escherichia coli TOP10
Assay: shrunken log2 fold change of peptide-encoding DNA abundance (4.5 h post-induction vs induction); higher = less antimicrobial activity (less host growth inhibition)
Settings: time post-induction: 4.5 h; library: site-saturation at positions 5, 18, 19, 20
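Further: peptides expressed intracellularly from a pBAD plasmid library in pooled LB shake-flask culture, induced with 0.3% L-arabinose, DNA abundance read by NGS, three biological replicates, DESeq2 with apeglm shrinkage.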

| Sequence | shrunken log2 fold change |
| --- | --- |
| RRIRWRPPRLPRPRPRPQHTPRP | 0.0837 |
| RRIRPRPPRLPRPRPRPANNPRP | -0.353 |
| RRIRPRPPRLPRPRPRPCEIPRP | 0.0471 |
| RRIRPRPPRLPRPRPRPKCLPRP | -0.0739 |
| RRIRHRPPRLPRPRPRPQYEPRP | -0.0461 |
| RRIRRRPPRLPRPRPRPPWNPRP | 0.474 |
| RRIRARPPRLPRPRPRPLFSPRP | -0.124 |
| RRIRQRPPRLPRPRPRPTRRPRP | 0.556 |
| RRIRCRPPRLPRPRPRPGLNPRP | -0.0525 |
| RRIRPRPPRLPRPRPRPHHTPRP | -0.617 |
| RRIRERPPRLPRPRPRPEFCPRP | 0.112 |
| RRIRTRPPRLPRPRPRPINVPRP | -0.509 |
| RRIRDRPPRLPRPRPRPCLYPRP | 0.0504 |
| RRIRHRPPRLPRPRPRPQVSPRP | -0.00697 |
| RRIRWRPPRLPRPRPRPCVYPRP | -0.00208 |
| RRIRKRPPRLPRPRPRPFSFPRP | 0.0267 |
| RRIRRRPPRLPRPRPRPNAVPRP | 0.23 |
| RRIRCRPPRLPRPRPRPMCCPRP | -0.038 |
| RRIRYRPPRLPRPRPRPVLRPRP | 0.124 |
| RRIRVRPPRLPRPRPRPNFKPRP | -0.0173 |
| RRIRKRPPRLPRPRPRPWNDPRP | 0.0299 |
| RRIRFRPPRLPRPRPRPDKNPRP | -0.413 |
| RRIRFRPPRLPRPRPRPEHQPRP | -0.1 |

| Sequence | shrunken log2 fold change |
| --- | --- |
| RRIRFRPPRLPRPRPRPWHAPRP | -0.162 |
| RRIRQRPPRLPRPRPRPQQLPRP | -0.0824 |
| RRIRGRPPRLPRPRPRPFTNPRP | 0.0545 |
| RRIRGRPPRLPRPRPRPNFQPRP | 0.122 |
| RRIRARPPRLPRPRPRPCGQPRP | 0.25 |
| RRIRGRPPRLPRPRPRPDFPPRP | 0.414 |
| RRIRPRPPRLPRPRPRPIWEPRP | 0.0926 |
| RRIRGRPPRLPRPRPRPLFWPRP | 0.544 |
| RRIRKRPPRLPRPRPRPVDSPRP | 0.134 |
| RRIRGRPPRLPRPRPRPIITPRP | -0.0865 |
| RRIRKRPPRLPRPRPRPNFLPRP | -0.185 |
| RRIRARPPRLPRPRPRPAGIPRP | 0.156 |
| RRIRDRPPRLPRPRPRPPCFPRP | 0.35 |
| RRIRLRPPRLPRPRPRPVKTPRP | -0.0565 |
| RRIRMRPPRLPRPRPRPMEHPRP | 0.0124 |
| RRIRFRPPRLPRPRPRPVCDPRP | -0.255 |
| RRIRPRPPRLPRPRPRPPAMPRP | 0.447 |
| RRIRTRPPRLPRPRPRPDAMPRP | 0.248 |
| RRIRERPPRLPRPRPRPSELPRP | 0.0285 |
| RRIRIRPPRLPRPRPRPLPKPRP | 0.263 |
| RRIRYRPPRLPRPRPRPERDPRP | 0.0217 |
| RRIRERPPRLPRPRPRPMPPPRP | 0.197 |
| RRIRERPPRLPRPRPRPPEVPRP | 0.452 |

| Sequence | shrunken log2 fold change |
| --- | --- |
| RRIRWRPPRLPRPRPRPREYPRP | 0.0698 |
| RRIRERPPRLPRPRPRPQGEPRP | -0.0686 |
| RRIRSRPPRLPRPRPRPITCPRP | -0.286 |
| RRIRWRPPRLPRPRPRPQEAPRP | -0.00482 |
| RRIRRRPPRLPRPRPRPGSHPRP | -0.154 |
| RRIRMRPPRLPRPRPRPTLSPRP | 0.377 |
| RRIRVRPPRLPRPRPRPCPYPRP | -1.14 |
| RRIRLRPPRLPRPRPRPPKLPRP | 0.252 |
| RRIRGRPPRLPRPRPRPNVAPRP | 1.15 |
| RRIRNRPPRLPRPRPRPWDFPRP | -0.00226 |
| RRIRRRPPRLPRPRPRPIKHPRP | 0.0383 |
| RRIRFRPPRLPRPRPRPIVMPRP | -0.731 |
| RRIRYRPPRLPRPRPRPHGFPRP | 0.0238 |
| RRIRTRPPRLPRPRPRPNGPPRP | -0.277 |
| RRIRFRPPRLPRPRPRPWTKPRP | 0.0163 |
| RRIRGRPPRLPRPRPRPEQGPRP | 0.374 |
| RRIRYRPPRLPRPRPRPFFAPRP | -0.18 |
| RRIRARPPRLPRPRPRPYLPPRP | 0.0397 |
| RRIRERPPRLPRPRPRPTRSPRP | -0.196 |
| RRIRSRPPRLPRPRPRPEDSPRP | 0.00839 |
| RRIRWRPPRLPRPRPRPPLGPRP | 0.416 |
| RRIRNRPPRLPRPRPRPNQHPRP | -0.116 |
| RRIRNRPPRLPRPRPRPVQDPRP | -0.302 |

| Sequence | shrunken log2 fold change |
| --- | --- |
| RRIRQRPPRLPRPRPRPGADPRP | 0.47 |
| RRIRHRPPRLPRPRPRPSQGPRP | 0.0306 |
| RRIRNRPPRLPRPRPRPLIHPRP | -0.714 |
| RRIRSRPPRLPRPRPRPRCEPRP | 0.152 |
| RRIRPRPPRLPRPRPRPYSDPRP | -0.713 |
| RRIRRRPPRLPRPRPRPTTLPRP | 0.0363 |
| RRIRARPPRLPRPRPRPGFNPRP | 0.252 |
| RRIRSRPPRLPRPRPRPPNPPRP | 0.273 |
| RRIRNRPPRLPRPRPRPGCGPRP | 0.451 |
| RRIRNRPPRLPRPRPRPNTYPRP | -0.971 |
| RRIRQRPPRLPRPRPRPKYKPRP | -0.445 |
| RRIRYRPPRLPRPRPRPVRKPRP | 0.195 |
| RRIRWRPPRLPRPRPRPFHYPRP | -2.18 |
| RRIRKRPPRLPRPRPRPADLPRP | 0.056 |
| RRIRFRPPRLPRPRPRPRTEPRP | 0.202 |
| RRIRIRPPRLPRPRPRPWTIPRP | -0.0831 |
| RRIRDRPPRLPRPRPRPGLTPRP | 0.262 |
| RRIRARPPRLPRPRPRPYGFPRP | 0.00293 |
| RRIRMRPPRLPRPRPRPMIAPRP | 0.0314 |
| RRIRNRPPRLPRPRPRPPYKPRP | -0.311 |
| RRIRKRPPRLPRPRPRPPGDPRP | 0.905 |
| RRIRIRPPRLPRPRPRPFTMPRP | -0.79 |

Source: the supplement of paper PMC9112550, “Optimization of the antimicrobial peptide Bac7 by deep mutational scanning” (BMC Biology, 2022)
